According to patent US20040202659A1 (ASAT AG APPLIED SCIENCE AND TECHNOLOGY, published 2004):

Assays:
PDG-A = biological target: T1, PDG-A; assay: specificity assay
T1 construct: lambda light chain; also called Group A phab clones; Group A autoantibody phab clones

PDG-B [1] = biological target: T2, PDG-B; assay: flow cytometry, biotinylated PDG-B on platelets with AI-B phab
T2 construct: human anti-GPIIb/IIIa Fab, as phab or as biotinylated recombinant Fab; lambda light chain; also called Group B phab clones; Group B antibody phab clones
Description: This was determined by means of flow-cytometric analysis. […] 10,000 events were counted in a FACScan appliance and the mean value of the fluorescence (±SD) was recorded.

PDG-B [2] = biological target: T2, PDG-B; assay: specificity assay

T1 sequence (VH, as listed by the source, chain 1 of 2): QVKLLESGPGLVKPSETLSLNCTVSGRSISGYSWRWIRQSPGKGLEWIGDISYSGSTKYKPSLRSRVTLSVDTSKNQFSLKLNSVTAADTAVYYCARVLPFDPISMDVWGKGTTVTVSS
T1 sequence (VL, as listed by the source, chain 2 of 2): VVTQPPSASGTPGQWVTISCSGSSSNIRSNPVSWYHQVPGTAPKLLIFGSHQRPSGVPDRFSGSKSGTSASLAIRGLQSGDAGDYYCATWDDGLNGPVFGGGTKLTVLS

| Binder | binding result (PDG-A) | inhibition of the binding of PDG-B to platelets (PDG-B [1]) | binding result (PDG-B [2]) |
| --- | --- | --- | --- |
| AI-B18 (Fab, V domains shown, phab; also called A1-B18) VH: QVKLLESGAEVKKPGSSVMVSCKASGGTFSSHTISWVRQAPGQGLEWMGGITPIFGTVNYAQKFQGRVTITADEPTSTAYMELRSLTSDDSGIYYCAREDGTTVPSQPLEFWGQGTRVTVSS | no binding | > 60% |  |
| AI-B34 (Fab, V domains shown, phab; also called A1-B34) VH: QVKLLESGAEVKKPGSSVMVSCKASGGTFSSHTISWVRQAPGQGLEWMGGITPIFGTVNYAQKFQGRVTITADEPTSTAYMELRSLTSDDSGIYYCAREDGTTVPSQPLEFWGQGTRVTVSS | no binding |  |  |
| AI-B40 (Fab, V domains shown, phab; also called A1-B40) VH: QVKLLESGAEVKKPGSSVMVSCKASGGTFSSHTISWVRQAPGQGLEWMGGITPIFGTVNYAQKFQGRVTITADEPTSTAYMELRSLTSDDSGIYYCAREDGTTVPSQPLEFWGQGTRVTVSS | no binding |  |  |
| AI-B14 (Fab, V domains shown, phab; also called A1-B14; AI-14) VH: QVKLLESGGGVVQPGRSLRLSCAASGFTFSDYGMHWVRQAPGKGLEWVAAISYDGSNKYYADSVKGRFSISRDNSNNTLYLQMSTLRAEDTAVYFCARDSETAIAAAGRFDIWGQGTMVTVSS | no binding |  | binds |
| AI-B17 (Fab, V domains shown, phab; also called A1-B17) VH: QVKLLESGGGVVQPGRSLRLSCAASGFTFSDYGMHWVRQAPGKGLEWVAAISYDGSNKYYADSVKGRFSISRDNSNNTLYLQMSTLRAEDTAVYFCARDSETAIAAAGRFDIWGQGTMVTVSS | no binding |  | binds |

Other lines, results leading:

| binding result (PDG-A) | inhibition of the binding of PDG-B to platelets (PDG-B [1]) | binding result (PDG-B [2]) | Binder |
| --- | --- | --- | --- |
| no binding | > 60% |  | AI-B38 (Fab, V domains shown, phab; also called A1-B38) VH: QVKLLESGAEVKKPGASVKVSCKVSGYTLTELSMHWVRQAPGKGLEWMGGFDPEDGETIYAQKFQGRVTMTEDTSTDTAYMELSSLRSEDTAVYYCETGLRSYNYGRNLDYWGQGTLVTVSS |
| no binding | > 60% |  | AI-B24 (Fab, V domains shown, phab; also called A1-B24) VH: QVKLLESGGGLVQPGGSLRLSCSASGFTFNKYAIHWVRQAPGKGLEYVSAISSNGGNTYYADSVKGRFTISRDNSKNTVYLQMSSLRAEDTAVYYCVRGSGSYLGYYFDYWGQGTLVTVSS VL: VVTQPPSVSVAPRQTATITCGGYKIGSKSVHWYQQKPGQAPVLVVYEDSYRPSEIPERFSGSNSGNMATLTITGVEAGDEADYYCQVWDNTNDQTIFGGGTKLTVLR |
